Publication PMC4622665

B1: Fpro0165 IgG (antibody, V domains shown)
VH: EVQLVESGGGLVKPGGSLRLSCAASGFTFSNAWMNWVRQAPGKGLEWVGRVKSKTDGGAADYAAPVKGRFTISRDDSKNTLYLQMNSLKTEDTAVYYCTTDQLGYDFWNGYYTDTLYYYFGMDVWGPGTTVTVSS
VL: DIVMTQSPLSLPVTPGEPASISCRSSQPLLAMDGHNYLDWYLQKPGQSPQVLIYQSKWRASGVPDRFSGSGSGTDFTLKISRVEAEDVGVYYCMQALQTPLTFGGGTKVEIK
B2: Fpro0067 IgG (antibody, V domains shown)
VH: EVQLVESGGGLVKPGGSLRLSCAASGFTFSNAWMNWVRQAPGKGLEWVGRIKSKTDGGAADYAAPVKGRFTISRDDSKNTLYLQMNSLKTEDTAVYYCTTDQLGYDFWSGYYTDTLYYYFGMDVWGPGTTVTVSS
VL: DIVMTQSPLSLPVTPGEPASISCRSSQPLLAMDGHNYLDWYLQKPGQSPQVLIYQSKWRASGVPDRFSGSGSGTDFTLKISRVEAEDVGVYYCMQALQTPLTFGGGTKVEIK
B3: Fpro0025 IgG (antibody, V domains shown)
VH: EVQLVESGGGLVKPGGSLRLSCAASGFTFSNAWMNWVRQAPGKGLEWVGRIKSKTDGGAADYAAPVKGRFTISRDDSKNTLYLQMNSLKTEDTAVYYCTTDQLGYDFWSGYYTDTLYYYFGMDVWGPGTTVTVSS
VL: DIVMTQSPLSLPVTPGEPASISCRSSQPLLAMDGHNYLDWYLQKPGQSPQVLIYLGSNRASGVPDRFSGSGSGTDFTLKISRVEAEDVGVYYCMQALQTPLTFGGGTKVEIK
B4: Fpro0084 IgG (antibody, V domains shown)
VH: EVQLVESGGGLVKPGGSLRLSCAASGFTFSNAWMNWVRQAPGKGLEWVGRIKSKTDGGAADYAAPVKGRFTISRDDSKNTLYLQMNSLKTEDTAVYYCTTDQLGYDFWSGYYTDTLYYYFGMDVWGPGTTVTVSS
VL: DIVMTQSPLSLPVTPGEPASISCRSSQQLQAYDGHNYLDWYLQKPGQSPQVLIYLGSNRASGVPDRFSGSGSGTDFTLKISRVEAEDVGVYYCMQALQTPLTFGGGTKVEIK

Key:
[1] = target: cynomolgus formyl peptide receptor 1 (cynomolgus monkey)
[2] = target: cynomolgus formyl peptide receptor 1 (cynomolgus monkey); experiment: FMAT competition binding on cells

Binder	IC50, inhibition of fMLFF-induced calcium release, cynomolgus FPR1 HEK cells [1]	IC50 [2]
B1	12 nM	20 nM
B2		13 nM
B3		33 nM
B4		13 nM
